Test results: patent publication EP4467153A1, “CONSTRAINED PEPTIDE INHIBITORS OF LRRK2-FADD INTERACTIONS” (University of Georgia Research Foundation, Inc., priority 2023, dated 2024)
Positions of bridges follow the written chain, without caps; N, C: chain ends. Non-standard residues stand in square brackets, D forms with d. Primed or numbered codes have the meaning given here. FAM = 5(6)-carboxyfluorescein label; S5 = C=CCCC[C@](C)(N)C(=O)O; PEG3′ = PEG3 spacer

Target: T1, LRRK2-FADD PPI (Flag G2019S-LRRK2 and V5-FADD) (Homo sapiens, UniProt Q5S007, G2019S)
T1 construct: expressed in transfected cells; host or cells: HEK293T
T1 sequence (Q5S007 whole entry G2019S): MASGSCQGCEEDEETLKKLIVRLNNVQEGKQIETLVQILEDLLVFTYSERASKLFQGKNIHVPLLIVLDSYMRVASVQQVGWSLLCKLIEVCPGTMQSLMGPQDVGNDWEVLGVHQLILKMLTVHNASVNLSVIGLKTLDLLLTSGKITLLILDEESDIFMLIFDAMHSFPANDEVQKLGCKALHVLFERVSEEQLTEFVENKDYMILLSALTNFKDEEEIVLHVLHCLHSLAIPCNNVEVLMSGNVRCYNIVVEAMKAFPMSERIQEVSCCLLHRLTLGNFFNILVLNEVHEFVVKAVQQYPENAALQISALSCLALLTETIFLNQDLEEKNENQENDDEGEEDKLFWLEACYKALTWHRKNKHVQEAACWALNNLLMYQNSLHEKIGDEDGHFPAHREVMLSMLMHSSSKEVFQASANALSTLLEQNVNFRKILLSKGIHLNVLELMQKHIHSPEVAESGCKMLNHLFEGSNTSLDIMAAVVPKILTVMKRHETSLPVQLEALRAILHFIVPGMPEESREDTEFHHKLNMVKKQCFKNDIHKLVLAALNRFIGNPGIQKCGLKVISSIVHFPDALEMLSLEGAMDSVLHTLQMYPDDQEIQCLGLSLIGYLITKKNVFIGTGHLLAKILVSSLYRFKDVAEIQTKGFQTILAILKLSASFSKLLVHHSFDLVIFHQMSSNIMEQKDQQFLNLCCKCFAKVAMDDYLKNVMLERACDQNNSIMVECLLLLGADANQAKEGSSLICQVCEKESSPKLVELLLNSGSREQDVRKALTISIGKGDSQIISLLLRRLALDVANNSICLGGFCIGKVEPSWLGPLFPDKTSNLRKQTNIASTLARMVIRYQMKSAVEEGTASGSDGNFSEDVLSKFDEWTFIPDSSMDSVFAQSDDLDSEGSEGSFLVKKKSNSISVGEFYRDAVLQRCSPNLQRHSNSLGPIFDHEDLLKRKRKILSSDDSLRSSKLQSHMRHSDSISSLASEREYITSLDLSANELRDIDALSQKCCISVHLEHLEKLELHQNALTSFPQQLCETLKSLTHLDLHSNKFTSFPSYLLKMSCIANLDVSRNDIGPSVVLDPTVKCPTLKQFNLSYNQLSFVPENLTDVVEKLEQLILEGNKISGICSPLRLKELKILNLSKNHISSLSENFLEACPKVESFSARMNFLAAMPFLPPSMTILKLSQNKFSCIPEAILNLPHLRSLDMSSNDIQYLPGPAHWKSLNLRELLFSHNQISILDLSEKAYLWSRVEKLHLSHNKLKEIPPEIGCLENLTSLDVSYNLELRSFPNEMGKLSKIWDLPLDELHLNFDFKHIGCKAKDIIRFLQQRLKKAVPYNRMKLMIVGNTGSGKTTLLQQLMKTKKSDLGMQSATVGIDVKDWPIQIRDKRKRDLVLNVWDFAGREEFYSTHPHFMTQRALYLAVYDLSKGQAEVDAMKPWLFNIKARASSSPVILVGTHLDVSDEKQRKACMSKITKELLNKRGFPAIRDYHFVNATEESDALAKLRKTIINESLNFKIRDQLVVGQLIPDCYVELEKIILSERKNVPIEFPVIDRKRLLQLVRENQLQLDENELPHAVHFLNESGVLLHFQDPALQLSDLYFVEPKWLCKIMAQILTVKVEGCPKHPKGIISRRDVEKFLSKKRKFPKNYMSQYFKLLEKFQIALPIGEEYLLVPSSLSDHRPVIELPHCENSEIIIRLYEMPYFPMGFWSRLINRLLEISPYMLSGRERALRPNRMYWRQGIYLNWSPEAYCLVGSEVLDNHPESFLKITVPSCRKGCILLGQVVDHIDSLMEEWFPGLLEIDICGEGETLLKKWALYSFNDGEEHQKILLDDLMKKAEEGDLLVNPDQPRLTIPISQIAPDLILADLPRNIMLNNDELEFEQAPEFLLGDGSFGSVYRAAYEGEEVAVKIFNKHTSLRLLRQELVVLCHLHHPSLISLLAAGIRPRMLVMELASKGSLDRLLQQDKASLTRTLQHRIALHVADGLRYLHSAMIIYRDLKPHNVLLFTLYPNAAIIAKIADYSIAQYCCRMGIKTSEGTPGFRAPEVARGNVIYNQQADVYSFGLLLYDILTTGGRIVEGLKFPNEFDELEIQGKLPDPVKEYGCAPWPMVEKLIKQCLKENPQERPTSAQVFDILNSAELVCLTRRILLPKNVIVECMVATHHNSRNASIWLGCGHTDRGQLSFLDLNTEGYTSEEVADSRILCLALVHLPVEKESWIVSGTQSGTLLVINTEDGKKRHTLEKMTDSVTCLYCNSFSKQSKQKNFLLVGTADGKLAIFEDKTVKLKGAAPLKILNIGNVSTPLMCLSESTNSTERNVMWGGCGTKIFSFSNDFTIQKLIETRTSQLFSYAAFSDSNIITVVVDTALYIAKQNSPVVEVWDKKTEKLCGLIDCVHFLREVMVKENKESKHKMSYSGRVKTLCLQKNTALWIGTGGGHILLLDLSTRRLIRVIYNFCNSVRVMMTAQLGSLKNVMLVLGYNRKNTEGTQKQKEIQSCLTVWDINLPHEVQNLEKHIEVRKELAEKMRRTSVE
Experiment: Co-immunoprecipitation of LRRK2-FADD interaction in transfected HEK293T cells
Format: cell-based
Details: 10 µM, 48 hr, normalized to immunoprecipitated Flag-LRRK2
Protocol: It was then assessed whether this peptide library (FARM1-FARM5) could disrupt the interaction between over-expressed Flag G2019S-LRRK2 and V5-FADD by co-immunoprecipitation. Flag-LRRK2 was purified on anti-Flag resin and the eluate as well as the protein extract (input) separated by SDS-PAGE, with the membranes probed for V5 (FADD) and Flag (LRRK2). The transfected cells were treated with the indicated peptide (10 µM) for a total of 48 hr prior to collection. […] To minimize the use of primary mouse cortical neuron cultures, FARMS was used in subsequent experiments to examine the potential neuroprotective effects of LRRK2-FADD disruption.
Assessment of LRRK2-FADD interaction. Co-immunoprecipitation was undertaken to determine the effects of the stapled peptides on the LRRK2-FADD PPI, as previously described. Briefly, 10cm plates of HEK293T cells transiently expressing Flag-WT or mutant LRRK2 and V5-FADD (at a 3:1 ratio), and treated with different concentrations of FARM peptides (as indicated in the Figure legends), were washed in PBS and lysed in co-IP buffer (20mM HEPES, pH7.4; 150 mM NaCl; 0.1% NP40; 2 mM EGTA; 2 mM MgCl2; 10% glycerol, pH 7.2; protease and phosphatase cocktail [Agilent Technologies]) for 30 min on ice followed by 15 strokes with a Dounce glass homogenizer, and centrifugation at 13000 rpm for 15 min to remove cellular debris. Following pre-clearing with IgG-coupled beads, 40 µl of washed anti-Flag resin (Sigma-Aldrich) per mg of protein was added and the samples incubated under rotation overnight at 4°C. The following morning, the beads were centrifuged and washed a total of 5X with coIP buffer, before elution in 2X SDS sample buffer at 95°C for 10 min. The eluate (and input) was separated by SDS-PAGE and membranes probed with anti-Flag (LRRK2) and V5 (FADD).

Substance	amount of FADD that co-purified with G2019S-LRRK2 (LRRK2-FADD interaction)
FARM2: FAM-labeled hydrocarbon-stapled FADD Armadillo domain peptide; mass fits SEQ ID NO. 3 KVADLXQEVXQARDLQNRSK ({FAM-PEG3′}-KVADL[S5]QEV[S5]QARDLQNRSK-NH2; staple 6-10; not fully specified) [FAM-labeled hydrocarbon-stapled FADD Armadillo domain peptide; 3 KVADLXQEVX…]	to a lesser extent
FARM3: FAM-labeled hydrocarbon-stapled FADD Armadillo domain peptide; mass fits SEQ ID NO. 4 KVADLVQEXQQAXDLQNRSK ({FAM-PEG3′}-KVADLVQE[S5]QQA[S5]DLQNRSK-NH2; staple 9-13; not fully specified) [FAM-labeled hydrocarbon-stapled FADD Armadillo domain peptide; 4 KVADLVQEXQQAXDLQNRSK]	reduced the interaction between LRRK2 and FADD
